According to article PMC7930613, “Exploring the Potential of Cytochrome P450 CYP109B1 Catalyzed Regio—and Stereoselective Steroid Hydroxylation” (Frontiers in Chemistry, 2021):

Assays:
Experiment in all cases: HPLC, steroid hydroxylation rate, hyperbolic fit
Format in all cases: biochemical, Bacillus subtilis
Details in all cases: 1 mM NADPH, redox partners Fdr_0978 (4 μM) and Fdx_1499 (20 μM), 2 mM MgCl2, pH 8.0, 30°C
[1] = test system: T1, [H][C@@]12CC[C@H](O)[C@@]1(C)CCC1=C3CCC(=O)C=C3CC[C@]12[H]
T1 construct: assayed with separate redox partners Fdr_0978/Fdx_1499
From the text: (§1) HPLC, steroid hydroxylation rate, hyperbolic fit on CYP109B1

[2] = test system: T2, C[C@]12CC[C@H]3[C@@H](CCC4=CC(=O)CC[C@@H]43)[C@@H]1CC[C@@H]2O
T2 construct: assayed with separate redox partners Fdr_0978/Fdx_1499
From the text: as §1

[3] = test system: C[C@]12CC[C@H]3[C@@H](CCC4=CC(=O)CC[C@@]43C)[C@@H]1CC[C@@H]2O
From the text: as §1

[4] = test system: C[C@]12CC[C@H]3[C@@H](CCC4=CC(=O)C=C[C@@]43C)[C@@H]1CC[C@@H]2O
From the text: as §1

For “CYP109B1 (Bacillus subtilis subsp. subtilis str. 168)”, which Km [1] is on record?
Its Km is 163.1 ± 38.4 µM.

What about the kcat [1] of the same substance?
The kcat was 0.197 ± 0.0117 s⁻¹.

What about the kcat/Km [1] of the same substance?
The kcat/Km was 1200 M⁻¹ s⁻¹.

And the Km [2]?
Its Km is 136.3 ± 18.4 µM.

And the kcat [2]?
The kcat was 0.0717 ± 0.00167 s⁻¹.

What about the kcat/Km [2] of the same substance?
Its kcat/Km is 517 M⁻¹ s⁻¹.

And the Km [3]?
Its Km is 83.7 ± 20.4 µM.

What about the kcat [3] of the same substance?
The kcat was 0.0783 ± 0.005 s⁻¹.

What about the kcat/Km [3] of the same substance?
Its kcat/Km is 933 M⁻¹ s⁻¹.

And the Km [4]?
The Km was 193.1 ± 38.2 µM.

What about the kcat [4] of the same substance?
The kcat was 0.0583 ± 0.00333 s⁻¹.

And the kcat/Km [4]?
The kcat/Km was 300 M⁻¹ s⁻¹.
